Km and kcat data for one protein are collected here from paper PMC12238454, “Soyasaponin β-glucosidase confers soybean resistance to pod borer (Leguminivora glycinivorella)” (aBIOTECH, 2025).

Common to all, as to assay: purified protein
Common to all, as to assay type: biochemical, Glycine max
Details in all cases: 50 mM Na2HPO4-citric acid buffer, optimal pH 5.5 and temperature 42 °C, apparent Km, substrate 1.25-80 µM

Substrate in data set [1]: CC1(C)C[C@H]2C3=CC[C@@H]4[C@@]5(C)CC[C@H](O[C@@H]6O[C@H](C(=O)O)[C@@H](O)[C@H](O)[C@H]6O[C@@H]6O[C@H](CO)[C@H](O)[C@H](O)[C@H]6O[C@@H]6O[C@H](CO)[C@@H](O)[C@H](O)[C@H]6O)[C@](C)(CO)[C@@H]5CC[C@@]4(C)[C@]3(C)CC[C@@]2(C)[C@H](O[C@@H]2OC[C@H](O)[C@H](O)[C@H]2O)[C@@H]1O
Substrate in data set [2]: C[C@@H]1O[C@@H](O[C@H]2[C@H](O[C@H]3[C@H](O[C@H]4CC[C@@]5(C)[C@@H](CC[C@]6(C)[C@@H]5CC=C5[C@@H]7CC(C)(C)[C@@H](O)[C@@H](O[C@@H]8OC[C@H](O)[C@H](O)[C@H]8O)[C@]7(C)CC[C@]56C)[C@@]4(C)CO)O[C@H](C(=O)O)[C@@H](O)[C@@H]3O)O[C@H](CO)[C@H](O)[C@@H]2O)[C@H](O)[C@H](O)[C@H]1O
Substrate in data set [3]: CC1(C)C[C@H]2C3=CC[C@@H]4[C@@]5(C)CC[C@H](O[C@@H]6O[C@H](C(=O)O)[C@@H](O)[C@H](O)[C@H]6O[C@@H]6O[C@H](CO)[C@H](O)[C@H](O)[C@H]6O)[C@](C)(CO)[C@@H]5CC[C@@]4(C)[C@]3(C)CC[C@@]2(C)[C@H](O[C@@H]2OC[C@H](O)[C@H](O)[C@H]2O)[C@@H]1O

B1: GmSSBG1 (SSBG1Δ24; GmBGLU13) (Glycine max) (protein)
chain: LDLSFLPSDFLFGIASSSYQYEGAYKSDGKGLSNWDNYTHGPGRSVIMDGSNGDIAIDHYHRYLEDIDLMETLGVNSYRLSLSWARILPKGRFGEPNHAGIEFYNRLIDVLLLKGIQPFVTLSHYDIPQELEDRYGSWLSPQLQEDFAFYADLCFKTFGDRVKYWVTFNEPNFLVSLGYRSGLYPPCRCSGQLAMAKCSEGDSEKEPFVAAHNVILSHAAAVDIYRTKYQTEQKGSIGIVLQHEWFEPMSNSTADKLASERARAFNFNWFLDPIIFGKYPTEMENVLGSLLPKFSSYEKEKLKRGLDFIGVNYYTAFYVQDCMYSACKPGPGISRTEGSYKKSGEKNGVPIGEPTPFSWFNIYPDGMEKTVTYVRDRYNNTPIFLTENGYAEEVDPNFTSEEHLNDFKRIKYMVDHIEALLAAIRKGADVRGYFAWTLIDSFEWIYGYTVRYGFHHVDYATLKRTPRLSASWYKQLLVQYKKTFLLGTSMTGHEKLVQHT
notes: N-terminal 24-residue signal peptide removed (SSBG1Δ24); MBP fusion from pMAL-c2x, E. coli BL21(DE3), amylose resin; tag removal not mentioned
B1: the Km in the data set “purified protein [1]” is 46.51 µM; in “purified protein [2]”, 165.90 µM; in “purified protein [3]”, 28.88 µM. Moreover, the kcat in “purified protein [1]” amounted to 0.0040 s⁻¹; in the data set “purified protein [2]” it was 0.0072 s⁻¹; in “purified protein [3]”, 0.0018 s⁻¹.
